Experimental data as given in article PMC8809517, “Cofactor-independent RNA editing by a synthetic S-type PPR protein”.

T1: GFP-9S library array, motif 4 ND N98C;D124R (synthetic construct, N98C;D124R)
T1 chain: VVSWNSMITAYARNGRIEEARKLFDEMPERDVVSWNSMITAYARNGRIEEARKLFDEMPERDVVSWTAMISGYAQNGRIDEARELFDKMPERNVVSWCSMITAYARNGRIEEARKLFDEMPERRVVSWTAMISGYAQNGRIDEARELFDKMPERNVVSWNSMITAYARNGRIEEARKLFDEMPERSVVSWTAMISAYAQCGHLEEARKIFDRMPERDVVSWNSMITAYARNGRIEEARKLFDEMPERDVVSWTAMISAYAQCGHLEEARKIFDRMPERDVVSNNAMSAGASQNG

T2: GFP-9S library array, motif 4 ND D124I (synthetic construct, D124I)
T2 chain: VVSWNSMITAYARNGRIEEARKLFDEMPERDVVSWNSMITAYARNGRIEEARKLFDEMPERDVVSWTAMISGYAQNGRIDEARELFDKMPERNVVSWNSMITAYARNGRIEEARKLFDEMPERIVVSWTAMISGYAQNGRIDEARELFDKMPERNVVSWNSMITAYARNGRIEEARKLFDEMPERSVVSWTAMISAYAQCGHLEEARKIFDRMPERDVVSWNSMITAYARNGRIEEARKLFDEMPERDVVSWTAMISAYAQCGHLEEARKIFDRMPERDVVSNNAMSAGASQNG

T3: GFP-9S library array, motif 4 ND N98P;D124V (synthetic construct, N98P;D124V)
T3 chain: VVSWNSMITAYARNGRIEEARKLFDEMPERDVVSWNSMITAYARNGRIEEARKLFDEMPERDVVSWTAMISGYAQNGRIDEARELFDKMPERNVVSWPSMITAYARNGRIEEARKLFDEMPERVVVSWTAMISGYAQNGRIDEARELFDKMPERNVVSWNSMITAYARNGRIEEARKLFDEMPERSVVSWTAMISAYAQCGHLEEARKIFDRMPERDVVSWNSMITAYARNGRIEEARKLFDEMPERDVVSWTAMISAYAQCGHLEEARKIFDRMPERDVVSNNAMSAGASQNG

T4: GFP-9S library array, motif 4 ND N98D;D124L (synthetic construct, N98D;D124L)
T4 chain: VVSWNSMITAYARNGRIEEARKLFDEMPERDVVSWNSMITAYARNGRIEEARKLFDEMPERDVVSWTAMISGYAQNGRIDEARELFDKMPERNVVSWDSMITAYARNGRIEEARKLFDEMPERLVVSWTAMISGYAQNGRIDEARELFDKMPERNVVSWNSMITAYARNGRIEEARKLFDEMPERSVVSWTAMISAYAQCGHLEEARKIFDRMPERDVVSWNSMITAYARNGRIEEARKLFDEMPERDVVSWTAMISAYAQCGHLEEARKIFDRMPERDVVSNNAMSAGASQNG

T5: GFP-9S library array, motif 4 ND N98F;D124G (synthetic construct, N98F;D124G)
T5 chain: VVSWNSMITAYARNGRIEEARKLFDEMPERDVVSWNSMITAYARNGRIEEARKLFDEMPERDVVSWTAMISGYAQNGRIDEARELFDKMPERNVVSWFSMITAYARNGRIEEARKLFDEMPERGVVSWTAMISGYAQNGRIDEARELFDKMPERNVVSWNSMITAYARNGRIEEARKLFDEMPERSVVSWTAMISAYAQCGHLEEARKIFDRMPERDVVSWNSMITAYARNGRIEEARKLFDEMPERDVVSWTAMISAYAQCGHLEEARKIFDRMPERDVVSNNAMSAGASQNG


Tests used:
Assay in all cases: high-throughput RNA pulldown from lysate on Ni-NTA beads; HRP: 50 mM Tris pH 8, 150 mM NaCl, 1 mM beta-mercaptoethanol, 50 ug/ml BSA, 3 ug/ml yeast RNA, 0.5% heparin; ITC and FP: Tris pH 8, 200 mM KCl, 5% glycerol; MST: 50 mM Tris pH 8, 200 mM NaCl, 1 mM DTT, BSA, heparin, 0.05% Tween 20
Conditions in all cases: tags: N-terminal His-eGFP
[1] = biological target: T1, GFP-9S library array, motif 4 ND …
[2] = biological target: T2, GFP-9S library array, motif 4 ND D124I
[3] = biological target: T3, GFP-9S library array, motif 4 ND …
[4] = biological target: T4, GFP-9S library array, motif 4 ND …
[5] = biological target: T5, GFP-9S library array, motif 4 ND …

Row | Binder | Kd ([1]; label: 5' Cy5) [nM] | Kd ([2]; label: 5' Cy5) [nM] | Kd ([3]; label: 5' Cy5) [nM] | Kd ([4]; label: 5' Cy5) [nM] | Kd ([5]; label: 5' Cy5) [nM] | Kd ([1]; label: 5' IRDye 800CW) [nM] | Kd ([2]; label: 5' IRDye 800CW) [nM] | Kd ([3]; label: 5' IRDye 800CW) [nM] | Kd ([4]; label: 5' IRDye 800CW) [nM] | Kd ([5]; label: 5' IRDye 800CW) [nM]
1 | AUUACACGUGA (ssRNA) [Cy5-rpoA] | 160 | 53.8 | 121 | 133 | 74.1 |  |  |  |  | 
2 | AUUAAACGUGA (ssRNA) [IR-rpoA-A] |  |  |  |  |  | 44.5 | 184 | 407 | 90.5 | 139
3 | AUUAGACGUGA (ssRNA) [Cy5-rpoA-G] | 54.9 | 86.2 | 150 | 52.3 | 75.9 |  |  |  |  | 
4 | AUUAUACGUGA (ssRNA) [IR-rpoA-U] |  |  |  |  |  | 96.8 | 26.7 | 291 | 408 | 124
